{
  "source": "a protein production outcome set (Wang et al. 2014)",
  "data": [
    {"experiment": "label from the status in PepcDB records", "values": [
      {"sequence": "MPKVSVVTGFYNRCEHLERTIESILNQTYSDFELIVFDDASTDGTASRLLELKEKYDDPRFRFIIHEENKGFVKGLSEAISGAKGQYIAVQGSGDVSLPRRLELQVEFLDANPSVGAVGGAIYNIQEDTGTRNPQRFEKPIATFDDLLTSNPFTHGEVMYRLDLYKSIGGYRSGFTFAQDRDLWLRMAKKADLGIIPDFLYHRYTLLDGVSFVPDKTIRQRCFSEAAVRLALMPEEEGALAYSRLEAEGPTAVVPIADRAVQKFVPKAAIRLCLYGAPETGLHMARDYIQNPLRRTIVVVLISIYSSRLIKPLQDILYKSIFKGVSISKPIKSSLVKFTRRIQGK", "protein production": "failed"},
      {"sequence": "MPLCLKINKKHGEQTRRILIENNLLNKDYKITSEGNYLYLPIKDVDEDILKSILNIEFELVDKELEEKKIIKKPSFREIISKKYRKEIDEGLISLSYDVVGDLVILQISDEVDEKIRKEIGELAYKLIPCKGVFRRKSEVKGEFRVRELEHLAGENRTLTIHKENGYRLWVDIAKVYFSPRLGGERARIMKKVSLNDVVVDMFAGVGPFSIACKNAKKIYAIDINPHAIELLKKNIKLNKLEHKIIPILSDVREVDVKGNRVIMNLPKFAHKFIDKALDIVEEGGVIHYYTIGKDFDKAIKLFEKKCDCEVLEKRIVKSYAPREYILALDFKINKK", "protein production": "not failed"},
      {"sequence": "MPLPPSNGMGTAALVLGIISTVVFCLWPLAIVMGVLSVVFGVIGRRRARRGEATNAGQALAGIICGAVGIVLGVAFMVIIFAAAESSSDPWSTTDDSYSTSLVVHADR", "protein production": "failed"},
      {"sequence": "MPLSYLSPSSSEERSDDPSKYDGDFGVPQICFCGKQLDLGWDLAVHEQCFCIDKRFGEHRELIQNAFKFGGDSNRLQINQIRAEIEDLKDRLDKKDAEITRLMDALGKK", "protein production": "failed"},
      {"sequence": "MPLVLDLARPVSEEELRRLSELNPGYQWERSPEGRLWVSPTGGESGRRSLQLAYQLARWNEERGLGVVFDSSTGFKFPDGSILSPDAAFVERGAWEALSEAEREGFPPLAPKAVFEVRSASQDPEELRAKMGIYLRNGVLLGVLVDPYARAVEVFRPGKPPLRLEGVERVSLDPELPGFALSLPPLW", "protein production": "not failed"},
      {"sequence": "MPMPTMSQAPHSVRPLNRGHWIATYFIGVAGLSLALMLVLNLILLTTSQNPGKALLDSLSFSVAVLMVSLVLITLIAALPCILFFWLAQRFTWRHLWIYLVSGALAAQFAIPVMTKLLPELFNLPHGVSAALHYLQLASMFGGCGVFMGGLFWWRSGRHLR", "protein production": "failed"},
      {"sequence": "MPMTVVSGRFSTALLPTCFSLSRLHSVKYAAQRRVVFVSRSAHASSASVSVETNSNSNVDFVIEKKDKNRGEKKILACPICYNSLAWISQPNGLIESAASGIQVQCNTCKRSYSGNETHLDLAVASGSKRYSEPMPLSTELFRTPLVSFLYERGWRQNFIWGGFPGPEKEFEMAKAYLKPVLGGNIIDASCGSGMFSRLFTRSDLFSLVIALDYSENMLRQCYELLNKEENFPNKEKLVLVRADIARLPFLSGSVDAVHAGAALHCWPSPSSAVAEISRVLRPGGVFVATTFIYDGPFSFIPFLKNLRQEIMRYSGSHIFLNERELEDICKACGLVNFTRVRNGPFIMLSATKPS", "protein production": "failed"},
      {"sequence": "MPNMGIEKLYVSQQLTDSAAGMTFTKPQYYKYVQELSLKPKVNSASAYAENRKVDQDTQFDSCDVSINLFQMTSSQRAFMLGQSLAGGGGAIGALNDKAPWITLLYKAPIKVDDTIYYRYGVIYKTQFQPPDDDYKTTEGKPDFSQVPKISGSAQPTEWSFKDGKLEKHPWEWHVDTCDPNCPENIDDTWFNSVSIPSLVTYGSLSLSASSPKDGATGISLDTKPSLTFNNPIMNATSILLYNVSDGATVNTTTSSDSSGKIITITPSTNLVANKNYVLVVQDVTDLYGQTLDTQLIRFTTATAASLEHHHHHH", "protein production": "not failed"},
      {"sequence": "MPNPRRIVFGDVHGHFDALTALFEAIAPNERDGVYFVGDLIDRGPESAKVVDFVMENKYHCLLGNHEQMMLDAVGGFNFSPQLLHAWIYSGGKSTLESYEHQIPQSHVDWMRNLPLYLDLGDVWLVHAGVDPRLPIEEQGEAQFCWIRDEFHRYPYPYFANKLIITGHTITFTFANVEPGKLVSGPGWLDIDTGAYHPKSGWLTALELNNQEVYQAHIFTNEVRRLPLEDAVVPLPPQNLHRLEHHHHHH", "protein production": "failed"},
      {"sequence": "MPNYINYPSWLHPEVIQGIPITWYSLSYILIILISYKFIWYQIQSDNVDIKKEDYEIFMFSLVLGAILGGRLASTLVYDKSGIYYSNPWLILLPFDQHWNFTGFRGMAIHGGFLGAIIAPLITINTNLKNTNVQKYFLKLTDYGSIAFSSGYILGRLANFANAELYGRVMKGGIIFPNAEPFDTNIPGVKEFASSVGLEISPHDLLINLPRIPSQLIEGFFEGPVTFLLLWFLFKKIKKYDGFIFGVYVMLYAFFRFFIEYLREPDKELGFIITYKPITSLSEFSFLNISMGQILSLTLMLSGLIWIIVTKKIADKKIKNNTNLAYKN", "protein production": "failed"},
      {"sequence": "MPPAPVFLLLAAGASRRMRGADKLMEPVAGEPLLRLQARRGIAAGLAVLVTLPPDRPERWAALEGLAVQRLPVPDAAEGLAASIRAGVAAAPPDAAVLLLLADLPEIEATDLAQMAALHREAPKALLRATTADGRPGHPILFPADLRPELQALKGDQGARRILERAAGRLRLVPLAGTRAVTDLDTPEDWALWRARTGHLEHHHHHH", "protein production": "failed"},
      {"sequence": "MPPHASQVSVVVIGYDDAAHVTDAVRSALAQGPAVREVIAVDDCSSDGSPGLLDALAVEDTRVRVLRREVNSGGCGTPRNDGIDAATAPYTMFLDSDDMLPPGAVEALLAAADRHGAQVAAGLCVRRELPSGREVPWQPELYTEPALVPHPARLRRLVHDTLCVNKLYRTDFLREHAIRFPDGRFPYEDFVFSARVLAAGPRMALVPDTVYVWHVRRSAERLSISLDRAGIDNWQARMAAAAQAYDILLGAGEKRLARAARAKFLDHELRMYTRELDLRGTEYRREWWTLTRAYLSAFDAAEFALAPAPGRVIARVVLAAEEPRDLPRLKELAARPARLHPPYARAADGTPVWSADLPQVPLDHVLVRPMHLLPVAVDAELRPRARGTRLRLRLHELYGRVADAGPASVNLEFVHREGGRVGTAATAPLLADPEFDTWSAEVPVDLAALGSGTWDLRLTLRFHDGTSRDTTAHAVAGPGLLRRGVVPSGRHGVLLVQPYATHSGALALRVATGIQGVTSVMGRRLRRLLHW", "protein production": "failed"},
      {"sequence": "MPPLCPLPTGGKRTNLHQYRHATRAMTDRLSPERRRYLMQQVRSKNTRPEKAVRSLLHSIGYRFRLHRKDLPGTPDIVFPSRRLVLFVHGCFWHGHGCRIGQLPKSRLDYWSPKIEANRARDQRKEAALAAEGWRVAVVWQCELSDLGALEARLRNILDPS", "protein production": "failed"},
      {"sequence": "MPPPLRVLILEDSEDDYFLLVRALKREFDIVPERVDSEESLRANLCEKRWDIVLSDYFMPQFDALAALTLIQSMNLDIPFIIVSGKIGEFEAVKAMKAGAHDYIMKGDYTRLIPAIRRELREAVIRQEQRRTDHELREQLHFRQALIDAIPAPIYFMDTTGIFLGCNKAFEAFSGHTQDEIVGKTIYDLMPPSLAKHTDSADRELFEHGGIQIYESVISFADGALHDVIFYKATFTTTEKNIGGLVGTILDITERKQTEERLRYMSTHDTLTGLYNRAYFQEEMERLEQGRQFPVSVVVFDVDRLKYVNDSQGHAAGDELLIRAALVLKGAFRAEDVVARIGGDEFAVLLPSADADVVQEALRRVIGKIEQSQTEDHPVPLSISFGAATASKGDRLEEVLKLADRRMYENKFKKCCVLPA", "protein production": "failed"},
      {"sequence": "MPQDVMTANHVSPSNDAAAPSALDLARNQRLSLMDLLSVSEALNAAGQQAAAAELYKTWVAFNDNNPTIHLAYFNYAVMLNQLGDRAGAVQAFRACLKANPEFAPGHINLGRALEDAGLIGHAVEQWSHYAEVTKNVDAETIGHRHMTLQNMGRVLEGAGKLEEAETALLQAFELRPELPEAGQHWASLRQRQCKWPVLAPSNHISPRKMLDAMSSLTLSCYADDPMFQLAKAYRLSKTLIGARPDLSRFPRRSPKQKSGTGQRLRVGYLSSDLRDHAVGFALCEVLELHDKDSLEVFAYYCGNVRGTDSTQERIKAAVHCWRDIHGVDDATAASQIIADEIDILIDVNGYTKDARAKIFAYRPAPVIVSFCGYPGSMGSPFHQYLISDGYMIPPENEIYYSEKVLRIACDQPLDRKRPVAARPSRADVGLPEDAFVYASFNGMQKITENCFARWMTILSETPGSLLWLLTGDDDVNQRLRDLAEKSGVASERLVFAPKAQNPQHIARIGLADLFLDTFPYGAHSTASDAITSGLPVLTMYGKTFAARFCGSIVTAAGVPEMICSSPEDYVARAIGFERDRQSLLEVRESIARQRETSVLRDIPALARRLEELFWQMQGECERGETPVPDLSNLDIYYEAGAEALLENIEFEDEQSYRERYLKKLRQWHDYAPIPYDRRLWQNPDN", "protein production": "failed"},
      {"sequence": "MPQPRRSTGSKLTYRPVGYVNAMSEQDEVPSEDRRKYEFRKVIEELKDYEGSGTQLVTIYIPPDKQISDVVAHVTQEHSEASNIKSKQTRTNVQDALTSIKDRLRYYDTFPPDNGMVVFSGAVDSGGGRTDMVTEVLESPPQPIESFRYHCDSAFLTEPLAEMLGDKGLYGLIVLDRRESNVGWLKGKRVQPVKSAESLVPGKQRKGGQSAQRFARLRLEAIDNFYQEVAGMADDLFVPKRHEIDGILVGGPSPTKDEFLDGDYLHHELQDKVLGKFDVSYTDESGLSDLVDAGQAALAEADLMDDKSDMEEFFEELNGGKLATYGFEQTRRNLIMGSVDRLLVSEDLREDVVIYECPNDHEEYETIDRRNTSPEHTCSDCGEEATEVDREDAIDHLMSIADQRGTETHFISTDFEKGEQLLTAFGGYAGILRYSTGV", "protein production": "failed"},
      {"sequence": "MPRASISDTIPMTMASIDAGSVRFTARADKRHLNPLGGVHGGFAATVLDSVTGCAIHSILEAGVGYGTVDLSVKRVKAVPEDTPLVAEGRVLHVPCAIGSQRADLMLAPPRLGRDRRCPAGLEHHHHHH", "protein production": "failed"},
      {"sequence": "MPRFSTACLDWESRIVNRESLIPFAPLFPTEAEAALDVFKSLQITDLPQVYDRKLGRHRHPTFGESCEQYVFDFVSAIFGAYDEESAKRVIEEFFLLISKKNIKSTLAAGIMLTALIRNWRHNQELLILAPTQEVAGNSFNPAASMVAADPDLTILLHVNKNTKEITHTLTKAVLKIVSADSNTAAGKKAAFVLIEELWLFGKKANAAAMLQEATGGLISRPEGFVIYITTQSDEPPAGVFKEKLDYFRDVRDGKIDDPTSLGVLYEFPDPMIDNEAYLDPANWYVTNPNMGRSVRKDWLERKLLKIQSGEDEEGDTWQSFLAKHLNVEIGMRQRGNRWPGANYWERAADPELAVLDHFAALDRFLERSEVVVVGVDGGGLDDLFGLTLVGREPDEIEIPVMVNGRESLVKMKRWLTWSHAWCHRDVLKRRKKIAPVLTDFDKAGHLTIVDAALEDLASIVDIIGTVKASGLLSSVAVDPAGLGEFVDALASPEIDITQENGLLVGVPQGFALMNAIKTAERRLSNGMLRHAGGPLMPWCVANLKIEPTATAIRATKQTAGDAKIDPAMALFDAVTMMVKNPEAPIASVYAERGIRVV", "protein production": "failed"},
      {"sequence": "MPRLARSLPLLLGLGLAAWAGATDGPLPVPADGVKLEAPTTASPSIRLVIPAEEIERRALAEYRQIIDNAAREGALAPDSVPDLARIRAIVQRLVPHAPRWNPDAAHWQWEVNLIGAAQVNAFCMPGGKIAVFSGLLERFRLTDDELAMALGHEIAHALREHARARAGQREITNLGANVISQLFGFGNRGDAGFGEGAKMHLLAFSRAEETEADLIGMDIAARAGFDPRAALTLWQKMGSIGGAEQKQFLSTHPSGRSRMTVLSRHLPETLPLYADALRMPMAKLPEYRSNMQYLGAAPVDNGDEAPMRPMVQQ", "protein production": "failed"},
      {"sequence": "MPRRDLLDLLALAAVWGGSFLFMRVAVPEFGPAALMELRVGLAALFLLPLALWRGKPALIARHWKAILVVGTLNSALPFLLYAYAAQSLGAGFLSVANAVTPVWGAVIGWLWLGDRLPRMRALGLLISLSGIIVLVWDKLDFHDGGTGPAVLAAISAPVFYGMAANWTKRYLGHVDALTNATGSMVAASLVLAPLAIIHWPEQAVSFEAWRATVLLAIVCTGAAYIVFFRLIARVGPTAAVSVTFLVPVFGVLWGVWFLDEAVTPRILAGAGVILVGTALALGLVGARRVAAAD", "protein production": "failed"}
    ]}
  ]
}
